Literature values as cited in patent US5624831A, “Immobilized acetylcholinesterase stabilized by a film of gelatin or albumin containing trehalose” (priority 1994, dated 1997).

Tested on: acetylcholinesterase extracted from the torpedo fish
Details: kept dry at 4° C. for longer than 7 days

B1: acetylcholinesterase extracted from the torpedo fish: acetylcholinesterase extracted from the torpedo fish (protein, UniProt P04058 22-564, looked up)
Acetylcholinesterase: DDHSELLVNTKSGKVMGTRVPVLSSHISAFLGIPFAEPPVGNMRFRRPEPKKPWSGVWNASTYPNNCQQYVDEQFPGFSGSEMWNPNREMSEDCLYLNIWVPSPRPKSTTVMVWIYGGGFYSGSSTLDVYNGKYLAYTEEVVLVSLSYRVGAFGFLALHGSQEAPGNVGLLDQRMALQWVHDNIQFFGGDPKTVTIFGESAGGASVGMHILSPGSRDLFRRAILQSGSPNCPWASVSVAEGRRRAVELGRNLNCNLNSDEELIHCLREKKPQELIDVEWNVLPFDSIFRFSFVPVIDGEFFPTSLESMLNSGNFKKTQILLGVNKDEGSFFLLYGAPGFSKDSESKISREDFMSGVKLSVPHANDLGLDAVTLQYTDWMDDNNGIKNRDGLDDIVGDHNVICPLMHFVNKYTKFGNGTYLYFFNHRASNLVWPEWMGVIHGYEIEFVFGLPLVKELNYTAEEEALSRRIMHYWATFAKTGNPNEPHSQESKWPLFTTKEQKFIDLNTEPMKVHQRLRVQMCVFWNQFLPKLLNATACDGELSS
In the case of B1, the “loss of enzymatic activity (in words)” value is listed as “looses normally all its enzymatic activity”.
